Test results published in article PMC3932411.

What was measured:
[1] = cell surface biotinylation, Western blot; conditions: glycan lost; control: wild type
[2] = I-V relationship, plateau phase; conditions: glycan lost; control: wild type
[3] = whole-cell patch clamp, +100 mV; conditions: glycan lost; control: untreated WT (DMSO)
[4] = I-V relationship; conditions: glycan lost; control: untreated WT (DMSO)

| Substance | localisation_or_trafficking [1] | other: channel voltage dependence [2] | other: channel deactivation kinetics, other: deactivation slope [3] | other: channel voltage dependence [4] |
| --- | --- | --- | --- | --- |
| TRPM4 (TRPM4b): N992Q | no change | no change |  |  |
| TRPM4 (TRPM4b): tunicamycin (10 μg/ml; 19 h) |  |  | no change, 5265 ± 572 vs 4855 ± 379 | no change |
